# Measurements published in the RNAGym collection of RNA variant scans (doi:10.7554/elife.80360).
# B1: Hairpin Ribozyme (parent)
# chain: GUCCUCUUUCACGUGCGCGUGAAAGAGAGAAGUGAACCAGAGAAACACACGUUGUGGUAUAUUACCUGGUA
# Variants of: B1
# Experiment: self-cleavage, relative activity (ratio to wild type); higher = more cleavage; co-transcriptional
row,Variant,self-cleavage
1,A43U A71G,0.247
2,A43U A71U,0.179
3,A43U C46A,0.0823
4,A43U C46G,0.0741
5,A43U C50G,0.107
6,A43U C50U,0.116
7,A43U G68A,0.0877
8,A43U G68U,0.223
9,A43U G69U,0.174
10,A43U U52C,0.143
11,A43U U52G,0.139
12,A43U U53A,0.206
13,A43U U53C,0.111
14,A43U U53G,0.046
15,A43U U55A,0.129
16,A43U U58A,0.0678
17,A43U U58G,0.0898
18,A43U U60A,0.255
19,A43U U63A,0.107
20,A43U U63C,0.219
21,A43U U67C,0.109
22,A43U U70C,0.159
23,A44C A45G,0.208
24,A44C A47U,0.135

row,Variant,self-cleavage
1,A44C A49U,0.0612
2,A44C A61G,0.115
3,A44C A71U,0.152
4,A44C C46A,0.141
5,A44C C46G,0.0995
6,A44C C46U,0.238
7,A44C C48U,0.0439
8,A44C C50A,0.0943
9,A44C C65A,0.213
10,A44C G51A,0.0817
11,A44C G51U,0.114
12,A44C G56A,0.152
13,A44C G68C,0.0374
14,A44C G69A,0.121
15,A44C U52G,0.203
16,A44C U53A,0.186
17,A44C U53C,0.108
18,A44C U55C,0.172
19,A44C U55G,0.102
20,A44C U60C,0.0498
21,A44C U62G,0.304
22,A44C U63A,0.128
23,A44C U63C,0.172
24,A44C U67A,0.113

row,Variant,self-cleavage
1,A44G A45C,0.252
2,A44G A49U,0.0347
3,A44G A61C,0.0999
4,A44G A61G,0.152
5,A44G A61U,0.189
6,A44G A71C,0.143
7,A44G C46A,0.184
8,A44G C46U,0.139
9,A44G C48A,0.102
10,A44G C50G,0.164
11,A44G C66A,0.022
12,A44G G51A,0.123
13,A44G G51C,0.238
14,A44G G51U,0.175
15,A44G G54A,0.151
16,A44G G68U,0.173
17,A44G G69A,0.0936
18,A44G U52G,0.231
19,A44G U53C,0.248
20,A44G U58A,0.17
21,A44G U60C,0.0999
22,A44G U60G,0.0699
23,A44G U62A,0.0675
24,A44G U62G,0.207

row,Variant,self-cleavage
1,A44G U63A,0.207
2,A44G U70C,0.262
3,A44U A45G,0.102
4,A44U A45U,0.229
5,A44U A47G,0.0154
6,A44U A49G,0.0827
7,A44U A49U,0.109
8,A44U A59C,0.173
9,A44U A61C,0.0833
10,A44U A61U,0.124
11,A44U A64G,0.202
12,A44U A71G,0.293
13,A44U C46A,0.116
14,A44U C48U,0.15
15,A44U C65A,0.184
16,A44U C65G,0.178
17,A44U G54C,0.0888
18,A44U G54U,0.0855
19,A44U G56U,0.231
20,A44U G57A,0.0753
21,A44U G68U,0.187
22,A44U G69A,0.15
23,A44U G69U,0.299
24,A44U U52C,0.059

row,Variant,self-cleavage
1,A44U U53A,0.079
2,A44U U53G,0.159
3,A44U U55G,0.0792
4,A44U U58G,0.136
5,A44U U60A,0.239
6,A44U U62A,0.26
7,A44U U63G,0.209
8,A44U U67A,0.143
9,A44U U67C,0.099
10,A44U U67G,0.102
11,A44U U70G,0.201
12,A45C,0.154
13,A45C A47C,0.198
14,A45C A47U,0.212
15,A45C A49C,0.142
16,A45C A49G,0.0463
17,A45C A64G,0.259
18,A45C C46G,0.152
19,A45C C48U,0.145
20,A45C C50U,0.0931
21,A45C C65G,0.0639
22,A45C C65U,0.102
23,A45C G51C,0.0857
24,A45C G54A,0.132

row,Variant,self-cleavage
1,A45C G56U,0.203
2,A45C G57U,0.249
3,A45C G69A,0.116
4,A45C U52A,0.0823
5,A45C U55C,0.244
6,A45C U55G,0.0998
7,A45C U58A,0.309
8,A45C U58G,0.3
9,A45C U60A,0.174
10,A45C U63A,0.0272
11,A45C U67C,0.128
12,A45C U70A,0.222
13,A45C U70C,0.241
14,A45G,0.177
15,A45G A47G,0.101
16,A45G A49G,0.177
17,A45G A49U,0.172
18,A45G A59C,0.151
19,A45G A61G,0.169
20,A45G A61U,0.0962
21,A45G A64U,0.176
22,A45G C50G,0.109
23,A45G C65A,0.349
24,A45G C65G,0.168

row,Variant,self-cleavage
1,A45G C65U,0.146
2,A45G G51C,0.176
3,A45G G56A,0.183
4,A45G G57C,0.0828
5,A45G U52A,0.0852
6,A45G U52C,0.0811
7,A45G U58C,0.269
8,A45G U62A,0.0572
9,A45G U62G,0.12
10,A45G U67C,0.12
11,A45U,0.14
12,A45U C46A,0.125
13,A45U C46G,0.241
14,A45U C50A,0.145
15,A45U C65A,0.131
16,A45U C66G,0.236
17,A45U G51A,0.075
18,A45U G56A,0.166
19,A45U G57C,0.15
20,A45U G68A,0.169
21,A45U G68U,0.258
22,A45U G69A,0.111
23,A45U U53C,0.161
24,A45U U55C,0.0822

row,Variant,self-cleavage
1,A45U U55G,0.0773
2,A45U U58A,0.132
3,A45U U58G,0.123
4,A45U U60C,0.112
5,A45U U63A,0.148
6,A45U U63G,0.0513
7,A45U U67C,0.0755
8,C46A A47G,0.133
9,C46A A47U,0.199
10,C46A A49C,0.156
11,C46A A59G,0.107
12,C46A A61C,0.311
13,C46A A71G,0.24
14,C46A C50U,0.111
15,C46A C65A,0.13
16,C46A C65G,0.146
17,C46A G51C,0.0397
18,C46A G54A,0.126
19,C46A G54C,0.129
20,C46A G56A,0.167
21,C46A G57C,0.156
22,C46A G68A,0.12
23,C46A G68C,0.277
24,C46A U55C,0.324

row,Variant,self-cleavage
1,C46A U55G,0.253
2,C46A U62A,0.132
3,C46A U63A,0.12
4,C46A U63C,0.225
5,C46A U67A,0.122
6,C46G A49G,0.137
7,C46G A61C,0.154
8,C46G A71C,0.211
9,C46G C50A,0.0593
10,C46G C50G,0.217
11,C46G C65U,0.107
12,C46G C66A,0.253
13,C46G C66G,0.162
14,C46G C66U,0.215
15,C46G G51A,0.154
16,C46G G51C,0.0873
17,C46G G51U,0.164
18,C46G G54A,0.134
19,C46G G54U,0.119
20,C46G G57U,0.167
21,C46G G68C,0.13
22,C46G G69A,0.179
23,C46G G69C,0.123
24,C46G U53G,0.186

row,Variant,self-cleavage
1,C46G U55A,0.142
2,C46G U58A,0.256
3,C46G U58C,0.308
4,C46G U58G,0.112
5,C46G U60C,0.0722
6,C46G U63C,0.103
7,C46G U63G,0.0876
8,C46G U70A,0.161
9,C46G U70G,0.149
10,C46U A47C,0.149
11,C46U A47G,0.0613
12,C46U A47U,0.163
13,C46U A49C,0.201
14,C46U A59C,0.32
15,C46U A64G,0.021
16,C46U A71C,0.151
17,C46U A71G,0.302
18,C46U C48A,0.203
19,C46U C48U,0.139
20,C46U C50A,0.0957
21,C46U C50U,0.227
22,C46U C65U,0.216
23,C46U C66A,0.113
24,C46U C66G,0.146

row,Variant,self-cleavage
1,C46U G51C,0.176
2,C46U G51U,0.256
3,C46U G54A,0.237
4,C46U G69C,0.138
5,C46U U52A,0.179
6,C46U U53C,0.235
7,C46U U55A,0.115
8,C46U U55C,0.0817
9,C46U U55G,0.125
10,C46U U58A,0.0874
11,C46U U63A,0.0217
12,C46U U63G,0.221
13,C46U U67G,0.171
14,A47C A59G,0.0267
15,A47C A61G,0.17
16,A47C A64U,0.218
17,A47C C48G,0.0552
18,A47C C48U,0.0858
19,A47C C50G,0.0249
20,A47C C65A,0.282
21,A47C G51A,0.303
22,A47C G51U,0.392
23,A47C G54C,0.228
24,A47C G54U,0.241

row,Variant,self-cleavage
1,A47C G56C,0.161
2,A47C G57A,0.225
3,A47C U52A,0.407
4,A47C U53A,0.28
5,A47C U55C,0.233
6,A47C U58G,0.172
7,A47C U62A,0.195
8,A47C U63A,0.127
9,A47C U63C,0.0902
10,A47C U63G,0.104
11,A47C U67C,0.148
12,A47C U67G,0.123
13,A47C U70A,0.264
14,A47G A59C,0.134
15,A47G A59U,0.186
16,A47G A61C,0.132
17,A47G A61U,0.195
18,A47G A71G,0.142
19,A47G C48G,0.121
20,A47G C65U,0.156
21,A47G C66A,0.138
22,A47G G54A,0.177
23,A47G G54C,0.266
24,A47G G56A,0.103

row,Variant,self-cleavage
1,A47G G56C,0.132
2,A47G G57C,0.159
3,A47G G68A,0.181
4,A47G U52G,0.259
5,A47G U53G,0.338
6,A47G U55C,0.207
7,A47G U58G,0.119
8,A47G U60A,0.139
9,A47G U60C,0.135
10,A47G U62C,0.0615
11,A47G U62G,0.0586
12,A47G U63C,0.248
13,A47G U67G,0.0884
14,A47G U70A,0.204
15,A47U A49C,0.144
16,A47U A49U,0.149
17,A47U A59C,0.164
18,A47U A61U,0.211
19,A47U A64C,0.0694
20,A47U C50A,0.113
21,A47U C50G,0.28
22,A47U C65U,0.0249
23,A47U C66G,0.116
24,A47U G51A,0.157

row,Variant,self-cleavage
1,A47U G57A,0.417
2,A47U G68A,0.148
3,A47U G68C,0.26
4,A47U G69C,0.227
5,A47U U52A,0.148
6,A47U U52G,0.256
7,A47U U53A,0.133
8,A47U U53C,0.0703
9,A47U U55C,0.203
10,A47U U55G,0.128
11,A47U U58A,0.106
12,A47U U62C,0.264
13,A47U U67A,0.103
14,A47U U70A,0.276
15,A47U U70G,0.141
16,C48A,0.157
17,C48A A61G,0.151
18,C48A A64C,0.0601
19,C48A A71C,0.343
20,C48A A71G,0.19
21,C48A A71U,0.129
22,C48A C50G,0.0517
